Assay results as given in article doi:10.1101/2024.11.29.625639.

Target: HCMV gHgLgO trimer with gO249 mutant, from virions (human cytomegalovirus, strain TB40/E (TB40-BAC4))
Experiment: co-IP + pull-down

HCMV glycoprotein gB, from virions (natural protein)
fold change of the interaction with gB against gHgLgOWT: 4 fold
